Data reported in US7968081B2, “Peptide for diagnosing, preventing and treating atherosclerosis and uses thereof” (Kyungpook National University Industry—Academic Cooperation …, priority 2007, dated 2011).
Ends that are not written are not given here. * marks the point of attachment. FITC = O=C1OC2(c3ccc(O)cc3Oc3cc(O)ccc32)c2ccc(NC(=S)*)cc21

Experiments:
IL-4R [1] = biological target: T1, IL-4R (Homo sapiens, UniProt P24394); assay: Bindability of peptide to IL-4R-expressing CHO-K1 cells (fluorescence microscopy); assay type: binding; conditions: 10 μM peptide, room temperature, 1 hour
T1 sequence (P24394 26-825): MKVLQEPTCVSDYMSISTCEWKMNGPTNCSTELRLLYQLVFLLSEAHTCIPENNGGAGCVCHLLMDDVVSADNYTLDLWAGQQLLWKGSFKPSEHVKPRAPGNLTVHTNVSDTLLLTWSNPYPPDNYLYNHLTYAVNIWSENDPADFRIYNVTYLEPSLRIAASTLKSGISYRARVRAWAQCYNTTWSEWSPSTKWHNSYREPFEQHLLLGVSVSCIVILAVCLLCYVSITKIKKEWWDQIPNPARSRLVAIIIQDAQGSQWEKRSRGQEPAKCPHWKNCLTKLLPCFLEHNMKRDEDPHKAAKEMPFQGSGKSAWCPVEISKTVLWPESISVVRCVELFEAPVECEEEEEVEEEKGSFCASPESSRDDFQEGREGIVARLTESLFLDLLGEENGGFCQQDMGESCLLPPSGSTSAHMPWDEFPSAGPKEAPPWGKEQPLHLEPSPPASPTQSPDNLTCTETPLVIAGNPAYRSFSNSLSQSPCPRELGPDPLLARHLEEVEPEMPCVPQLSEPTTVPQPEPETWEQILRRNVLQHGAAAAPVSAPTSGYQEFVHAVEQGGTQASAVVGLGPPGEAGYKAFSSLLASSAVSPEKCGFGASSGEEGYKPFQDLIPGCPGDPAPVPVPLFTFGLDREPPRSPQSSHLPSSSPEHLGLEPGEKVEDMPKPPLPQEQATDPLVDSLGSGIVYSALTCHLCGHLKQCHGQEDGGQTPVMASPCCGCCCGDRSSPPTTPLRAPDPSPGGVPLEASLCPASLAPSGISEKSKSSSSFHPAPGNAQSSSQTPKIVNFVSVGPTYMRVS
Excerpt: In order to further confirm roles of IL-4R as the receptor for the peptide of the present invention, a plasmid capable of expressing IL-4R (Cat. #TC119877, Origene, USA) was introduced into IL-4R-deficient CHO-K1 cells according to a conventional method known in the art, followed by expression of IL-4R, and binding of IL-4R with the peptide of the present invention was examined.
The cells were stained with antibodies (1:200 dilution) directed against. IL-4R and cell nuclei were stained with DAPI, followed by fluorescence microscopic examination. As a result, a large amount of IL-4R (red fluorescence) was present on the cell surface (FIG. 6B). Next, CHO-K1 and CHO-K1/IL-4R cells were reacted with 10 μM of the FITC-C-RKRLDRNC peptide at room temperature for 1 hour.

[2] = system: atherosclerotic plaque tissues; assay: In vivo atherosclerotic targeting of fluorescent dye-conjugated peptide (fluorescence microscopy of frozen sections); conditions: atherosclerosis-induced mice, circulation 15 min
Excerpt: C57BL/6 mice (Ldlr−/−) into which deficiency of a low-density lipoprotein (LDL) receptor was introduced by a genetic engineering technique were fed daily for 10 weeks with 3 g of high-cholesterol diet, thereby inducing atherosclerosis in animals. The high-cholesterol diet was a special animal feed containing 1.25% cholesterol, 15% fat and 0.5% cholate (Oriental Yeast Co., Japan).
Here, the peptide was synthesized by tagging an N-terminus of the peptide with FITC (fluorescein isothiocyanate) as a green fluorescent dye. The synthesized FITC-CRKRLDRNC peptide and a control peptide (FITC-NSSVDK) at final blood concentrations of 50 μM were injected into the atherosclerosis-induced mice via the left ventricle of animals, followed by circulation for 15 min. Thereafter, the aortae were removed from each mouse, and frozen sections were prepared, followed by Oil Red O (fat marker, Sigma-Aldrich, USA) staining or vWF (vascular endothelial cell marker, 1:5000 dilution, Abcam, USA) and Mac-3 (macrophage marker, 1:50 dilution, BD, USA) staining (Matter et al., Circulation Research, 95:1225-1233, 2004). In order to stain nuclei in tissues, a mounting medium containing a nuclear staining dye, 4′,6-diamidino-2-phenylindole (DAPI) (manufactured by Molecular Probe, USA) was treated on a slide, according to a conventional method known in the art, followed by fluorescence microscopic examination.

IL-4R [3] = biological target: T2, IL-4R (Mus musculus, UniProt P16382); assay: Histological distribution of peptide and IL-4R in atherosclerotic plaque tissues; assay type: in vivo, mice; conditions: 50 μM final concentration in blood, circulation 15 min; IL-4R antibody staining
T2 construct: from tissue; host or cells: aorta / atherosclerotic plaque of Ldlr-/- mice
T2 sequence (P16382 26-810): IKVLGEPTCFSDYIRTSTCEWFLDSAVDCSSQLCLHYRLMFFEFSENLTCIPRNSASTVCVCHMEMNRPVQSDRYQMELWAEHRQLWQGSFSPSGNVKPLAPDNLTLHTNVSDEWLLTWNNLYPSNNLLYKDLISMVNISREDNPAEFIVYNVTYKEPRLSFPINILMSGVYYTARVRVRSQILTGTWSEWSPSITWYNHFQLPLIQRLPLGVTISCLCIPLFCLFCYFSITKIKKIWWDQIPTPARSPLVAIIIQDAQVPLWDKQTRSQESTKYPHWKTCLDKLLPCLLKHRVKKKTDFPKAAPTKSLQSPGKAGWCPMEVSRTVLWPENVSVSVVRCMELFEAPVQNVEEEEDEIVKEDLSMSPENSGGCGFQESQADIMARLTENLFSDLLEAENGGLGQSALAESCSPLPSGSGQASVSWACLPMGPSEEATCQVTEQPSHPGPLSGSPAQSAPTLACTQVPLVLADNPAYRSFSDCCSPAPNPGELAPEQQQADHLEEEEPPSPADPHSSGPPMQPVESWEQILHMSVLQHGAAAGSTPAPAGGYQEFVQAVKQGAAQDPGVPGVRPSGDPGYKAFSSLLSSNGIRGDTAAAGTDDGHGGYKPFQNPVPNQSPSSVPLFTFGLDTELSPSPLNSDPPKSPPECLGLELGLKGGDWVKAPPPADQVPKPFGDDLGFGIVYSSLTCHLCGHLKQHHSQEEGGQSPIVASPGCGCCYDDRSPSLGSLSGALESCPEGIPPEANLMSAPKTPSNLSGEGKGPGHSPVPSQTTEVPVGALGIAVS
Procedure: In order to ascertain a receptor that binds to the peptide of the present invention, binding of the peptide was examined for various receptors. Out of those receptors, the results for IL-4R are as follows. First, fluorescein (FITC)-conjugated peptide of the present invention at a final concentration of 50 μM was injected into the blood of experimental animals, followed by circulation for 15 min. Thereafter, the aortae were removed from animals, and a frozen section slide was prepared. Then, the tissue section was stained by reaction of the section with antibodies (1:200 dilution, BD, USA) directed against IL-4R, at room temperature for 1 hour. In order to stain the tissue nuclei, DAPI was treated on the slide which was then examined under a fluorescence microscope (Joshi et al., Cancer Research, 61:8058-8061, 2001).

IL-4R [4] = biological target: T1, IL-4R; assay: Bindability of peptide to HT-1376 cells with inhibited expression of IL-4R (siRNA); assay type: binding; design: HT-1376 cells that essentially show constitutive expression of IL-4R; endogenous in cells; host or cells: HT-1376
Procedure: Silencing RNA for IL-4R (Cat. #16708A, Ambion, USA) was introduced into HT-1376 cells that essentially show constitutive expression of IL-4R, according to a conventional method known in the art, and treated for 24 hours to thereby result in substantially no expression of IL-4R, followed by evaluation of peptide binding. More specifically, 10 nM of IL-4R silencing RNA synthesized by the manufacturer was mixed with a siPORT™ NeoFX™ lipid transfection agent (Ambion, USA), and the mixture was treated for 24 hours on HT-1376 cells grown in a 4-well chamber slide, such that IL-4R silencing RNA is incorporated into the cells. Thereafter, the culture medium was replaced with one containing 10% bovine serum and the cells were recovered for 24 hours. After staining of cells with IL-4R antibodies and nuclear DAPI staining under the same conditions as in FIG. 6, a cellular expression level of IL-4R was examined. After IL-4R staining, the FITC-CRKRLDRNC peptide was reacted with the cells under the same conditions as in FIG. 6, and a binding degree of the peptide was measured.

binding to CHO-K1/IL-4R cells (IL-4R-expressing) (IL-4R [1]): green fluorescence due to the peptide
binding to IL-4R-deficient CHO-K1 cells (IL-4R [1]): no fluorescence arising from the peptide
position of peptide (green fluorescence) relative to IL-4R (red fluorescence) in atherosclerotic plaque tissues (IL-4R [3]): almost identically positioned
binding to HT-1376/siIL-4R cells (IL-4R silencing RNA-treated) (IL-4R [4]; same conditions as in FIG. 6): substantially no binding
binding to mock silencing RNA-treated HT-1376 cells (IL-4R [4]; same conditions as in FIG. 6): good bindability
binding to HT-1376 cells (constitutive expression of IL-4R) (IL-4R [4]; same conditions as in FIG. 6 (10 μM, room temperature, 1 hour)): active binding
Substance: FITC-CRKRLDRNC ({FITC}-CRKRLDRNC; cysteine pairing not given here) [FITC-CRKRLDRNC peptide, called the peptide of the present invention in b132]
peptide detection in cerebral tissues ([2]; 50 μM): not detected
peptide detection in pulmonary tissues ([2]; 50 μM): not detected
peptide found in aortic atherosclerotic plaque tissues (green fluorescence) ([2]; final blood concentration 50 μM via left ventricle): more targeted in plaque tissues
